Measurements taken from publication PMC9433928.
Read-outs that look alike come from different tables or passages of the source. Values belong to the substance of their own block, whether it stands above or below them.

Key:
[1] = target: GFP10-tagged constitutively active RAC1 L61 mutant (UniProt P63000); assay: split reporter (BiFC, NanoBiT); tripartite split-GFP: GFP10-GTPase mutant and GFP11-tagged partner co-transfected in MRC5 cells stably expressing GFP1-9; fixed 20 h after transfection; percent of reconstituted GFP (rGFP) positive cells by flow cytometry
[2] = target: GFP10-tagged constitutively active CDC42 L61 mutant (UniProt P60953); assay: as above
Chain of GFP10-tagged constitutively active CDC42 L61 mutant (P60953 other isoform, or with tags, fused parts or gaps mutant): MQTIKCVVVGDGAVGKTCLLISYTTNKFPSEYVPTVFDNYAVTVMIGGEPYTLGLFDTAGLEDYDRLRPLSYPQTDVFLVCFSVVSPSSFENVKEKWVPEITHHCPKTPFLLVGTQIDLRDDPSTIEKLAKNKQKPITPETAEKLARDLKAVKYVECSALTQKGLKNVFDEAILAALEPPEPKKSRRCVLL

[3] = target: GFP10-RHOA of the triSFP-RHOA reporter cells (UniProt P61586); assay: split reporter (BiFC, NanoBiT); intracellular competition in triSFP-RHOA cells (MRC5_GFP1-9 with doxycycline-induced GFP10-RHOA and GFP11-RBD); mCherry fusions transfected; rGFP fluorescence by flow cytometry in quartiles of mCherry expression
Chain of GFP10-RHOA of the triSFP-RHOA reporter cells (P61586 whole entry, the tested form may be a part): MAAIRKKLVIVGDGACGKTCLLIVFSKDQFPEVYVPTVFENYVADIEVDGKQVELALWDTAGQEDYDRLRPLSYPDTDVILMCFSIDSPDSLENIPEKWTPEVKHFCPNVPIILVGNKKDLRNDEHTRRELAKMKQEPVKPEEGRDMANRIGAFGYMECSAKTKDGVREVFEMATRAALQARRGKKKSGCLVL

[4] = target: GFP10-tagged constitutively active RHOA L63 mutant (UniProt P61586); assay: split reporter (BiFC, NanoBiT); tripartite split-GFP: GFP10-GTPase mutant and GFP11-tagged partner co-transfected in MRC5 cells stably expressing GFP1-9; fixed 20 h after transfection; percent of reconstituted GFP (rGFP) positive cells by flow cytometry
Chain of GFP10-tagged constitutively active RHOA L63 mutant (P61586 other isoform, or with tags, fused parts or gaps mutant): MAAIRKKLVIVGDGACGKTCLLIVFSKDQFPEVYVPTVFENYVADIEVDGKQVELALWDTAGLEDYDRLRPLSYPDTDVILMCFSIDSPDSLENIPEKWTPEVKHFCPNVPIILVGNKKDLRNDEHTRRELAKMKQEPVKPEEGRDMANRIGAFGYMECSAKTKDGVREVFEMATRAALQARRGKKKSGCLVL

[5] = target: GFP10-tagged constitutively active RHOA L63 mutant (UniProt P61586); assay: as above; remark: listed apart in the source

Chain of GFP11 tagged PAK-BD (domain or fragment) (Q13153 2-545): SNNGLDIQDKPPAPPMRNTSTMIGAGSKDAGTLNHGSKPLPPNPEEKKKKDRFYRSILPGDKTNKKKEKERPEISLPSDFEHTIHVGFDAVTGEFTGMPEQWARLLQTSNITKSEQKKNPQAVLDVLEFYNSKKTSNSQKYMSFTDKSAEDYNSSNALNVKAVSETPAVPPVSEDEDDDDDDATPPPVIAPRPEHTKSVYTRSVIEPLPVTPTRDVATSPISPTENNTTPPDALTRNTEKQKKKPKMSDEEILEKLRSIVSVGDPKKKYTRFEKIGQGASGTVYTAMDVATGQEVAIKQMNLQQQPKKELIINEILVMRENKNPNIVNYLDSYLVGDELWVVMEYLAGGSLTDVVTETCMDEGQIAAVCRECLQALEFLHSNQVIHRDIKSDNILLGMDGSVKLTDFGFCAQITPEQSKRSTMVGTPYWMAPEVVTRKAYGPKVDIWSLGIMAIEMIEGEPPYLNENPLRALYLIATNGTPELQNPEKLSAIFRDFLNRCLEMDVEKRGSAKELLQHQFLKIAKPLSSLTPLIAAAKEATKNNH
Chain of RHOTEKIN effector RHO Binding Domain (RBD) fused to a C-terminal GFP11 tag (domain or fragment) (Q8C6B2 whole entry, the tested form may be a part): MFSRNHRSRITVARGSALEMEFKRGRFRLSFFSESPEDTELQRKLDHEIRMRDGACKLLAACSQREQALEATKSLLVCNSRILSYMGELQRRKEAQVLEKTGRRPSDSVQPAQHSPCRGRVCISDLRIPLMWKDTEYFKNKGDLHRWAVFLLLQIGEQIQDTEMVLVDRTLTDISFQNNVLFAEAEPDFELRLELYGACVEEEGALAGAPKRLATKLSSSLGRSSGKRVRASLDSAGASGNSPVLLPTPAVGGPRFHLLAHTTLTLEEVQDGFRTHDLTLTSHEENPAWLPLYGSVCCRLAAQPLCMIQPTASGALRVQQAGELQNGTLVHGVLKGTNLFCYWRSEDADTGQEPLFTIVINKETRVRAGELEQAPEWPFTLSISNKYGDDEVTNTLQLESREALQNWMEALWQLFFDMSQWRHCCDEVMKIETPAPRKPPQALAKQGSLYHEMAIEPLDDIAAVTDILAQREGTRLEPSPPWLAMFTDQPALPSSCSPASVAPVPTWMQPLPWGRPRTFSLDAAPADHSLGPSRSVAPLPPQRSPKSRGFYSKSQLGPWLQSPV

- percent rGFP positive cells [1]: 9.9%
- percent rGFP positive cells [2]: 11.8%
Substance: GFP11 tagged PAK-BD (domain or fragment)

- percent decrease of rGFP fluorescence (competition with GFP11-RBD) [3]: 20%
Substance: RBD-mCherry (domain or fragment)

Substance: RHOTEKIN effector RHO Binding Domain (RBD) fused to a C-terminal GFP11 tag (domain or fragment)
- percent rGFP positive cells [4]: 25%
- percent rGFP positive cells [5]: 28%
